Measured values: US20250051409A1, “MODULATORS OF PHOSPHATIDYLSERlNE DECARBOXYLASE AND USE THEREOF” (THE NATIONAL INSTITUTE FOR BIOTECHNOLOGY IN THE NEGEV LTD., priority 2021, published 2025)
Ends that are not written are not given here.

How the values were obtained:
[1] = biological target: T1, Purified recombinant protein (full length) of human phosphatidylserine decarboxylase (PSD), with N-terminal His tag, expressed in E. coli (Acris-OriGene) (human); assay: cell-based or functional assay
T1 sequence (chain, fluorescently labelled in the MST assay with the peptides): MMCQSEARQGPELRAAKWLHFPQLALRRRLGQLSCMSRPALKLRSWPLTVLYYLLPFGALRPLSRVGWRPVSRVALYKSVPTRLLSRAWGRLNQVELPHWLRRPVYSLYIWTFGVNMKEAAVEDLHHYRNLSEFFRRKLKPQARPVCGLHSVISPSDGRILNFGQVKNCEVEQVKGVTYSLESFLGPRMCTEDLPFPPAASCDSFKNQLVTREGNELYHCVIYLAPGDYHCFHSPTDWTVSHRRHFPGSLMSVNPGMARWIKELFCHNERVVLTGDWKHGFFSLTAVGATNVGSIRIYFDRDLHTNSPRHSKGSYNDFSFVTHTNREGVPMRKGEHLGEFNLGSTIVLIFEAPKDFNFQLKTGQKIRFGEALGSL

[2] = biological target: T1, Purified recombinant protein (full length) of human phosphatidylserine decarboxylase (PSD), with N-terminal His tag, expressed in E. coli (Acris-OriGene) (human); assay: MST, fluorescently labelled purified PSD 0.25 µM, peptide titrated 1-10 µM
[3] = biological target: T1, Purified recombinant protein (full length) of human phosphatidylserine decarboxylase (PSD), with N-terminal His tag, expressed in E. coli (Acris-OriGene) (human); assay: microscale thermophoresis; fluorescently labelled PSD (0.25 µM) with peptide (1-10 µM)

Binder | inhibition of PSD activity (DSB-3 method) [1] [µM] | EC50 (read off the curve) [2] [nM] | Kd [3] [nM]
ALLTSGTSDPRARVTYGTPSLWARL (not fully specified) [peptide 1C11, derived from HTRA2] | 1 | 4000 | 3000
ALSTSSPIPSVPQSQAQPQTGSGAS [peptide 2F3, derived from MAML2] | 1 | 3000 | 3000
